pKd: −log10 of the molar value. Where two headings read alike, the source gives them in different places.
What was measured:
[1] = molecular target: crotoxin (CTX) from Crotalus durissus terrificus venom, heterodimer of CA and CB (Crotalus durissus terrificus)
[2] = molecular target: crotoxin basic subunit CB (phospholipase A2) from Crotalus durissus terrificus (Crotalus durissus terrificus) (UniProt P0CG56)
[3] = molecular target: crotoxin basic subunit CB (phospholipase A2) from Crotalus durissus terrificus (Crotalus durissus terrificus) (UniProt P0CG56); assay: ELISA
[4] = molecular target: crotoxin (CTX) from Crotalus durissus terrificus venom, heterodimer of CA and CB (Crotalus durissus terrificus); assay: SPR; Biacore T200; CTX immobilised on a CM5 chip by EDC/NHS coupling (10 mM acetate, pH 5.5); VHHs injected at 2.5 to 0.002 uM in HBS-p (10 mM HEPES, 150 mM NaCl, 3.4 mM EDTA, 0.005% Tween 20, pH 7.4); 30 uL/min, 25 °C; 1:1 Langmuir model
[5] = molecular target: crotoxin (CTX) from Crotalus durissus terrificus venom, heterodimer of CA and CB (Crotalus durissus terrificus); assay: SPR; Biacore T200; CTX amine-coupled on a CM5 chip; VHH 2.5 to 0.002 µM in HBS-p (10 mM HEPES, 150 mM NaCl, 3.4 mM EDTA, 0.005% Tween 20, pH 7.4); 30 µL/min, 25 °C; 1:1 Langmuir model
[6] = molecular target: crotoxin basic subunit CB (phospholipase A2) from Crotalus durissus terrificus (Crotalus durissus terrificus) (UniProt P0CG56); assay: ELISA; remark: listed apart in the source
[7] = molecular target: crotoxin (CTX) from Crotalus durissus terrificus venom, heterodimer of CA and CB (Crotalus durissus terrificus); remark: listed apart in the source
[8] = molecular target: crotoxin basic subunit CB (phospholipase A2) from Crotalus durissus terrificus (Crotalus durissus terrificus) (UniProt P0CG56); remark: listed apart in the source

Question: How did the inhibition of phospholipase activity on acyl-NBD-PC fluorescent phospholipids, toxin pre-incubated with VHH 30 min at 37 °C, toxin/VHH 1:5 to 1:40 (w/w) [1] turn out when VHH KF498604 (clone Cb-16) was run?
Answer: 80%

Question: What about the inhibition of phospholipase activity on acyl-NBD-PC fluorescent phospholipids, toxin pre-incubated with VHH 30 min at 37 °C, toxin/VHH 1:5 to 1:40 (w/w) [2] of the same substance?
Answer: 80%

Question: And the % of the unheated sample's ELISA signal after 1 h at 85 °C [3]?
Answer: 85%

Question: What about the koff [4] of the same substance?
Answer: 0.00554 s⁻¹

Question: And the kon [4]?
Answer: 68100 M⁻¹ s⁻¹

Question: And the pKd [5]?
Answer: 7.09

Question: And the % of the unheated sample's ELISA signal after 1 h at 85 °C [6]?
Answer: > 75%

Question: And the % of the unheated sample's ELISA signal after 1 h at 95 °C [6]?
Answer: 100%

Question: And the reduction of plasma creatine kinase in Swiss mice 3 h after i.m. injection of CTX (1.5 µg) pre-incubated with VHH at 1:10, 1:20 and 1:40 (w/w) (46%, 63%, 78%), against CTX alone [7]?
Answer: 78.8%

Question: What about the reduction of LDH release from murine C2C12 myotubes after 3 h with CB (20 µg) pre-incubated with VHH at 1:2.5 (w/w), against CB alone [8] of the same substance?
Answer: 59.3%

— paper PMC5923308
